± gives the uncertainty stated by the source.
B1: Formin-binding protein 4, residues 593 to 636; numbered along this chain, Q8N3X1 (parent)
chain: EINATPKGWSCHWDRDHRRYFYVNEQSGESQWEFPDGEEEEEES
B2: DnaJ homolog subfamily C member 2, residues 451 to 503; numbered along this chain, Q99543 (parent)
chain: SKNWSEDDLQLLIKAVNLFPAGTNSRWEVIANYMNIHSSSGVKRTAKDVIGKA

Variants of: B1
Assay: abundance fitness (aPCA) (normalised: wild type 0, dead -1); higher = more abundant; growth selection in yeast, the domain comes from the species named
Details: Homo sapiens

Variant	abundance fitness
E1D	-0.154 ± 0.15
E1W	-0.061 ± 0.41
E1A	-0.14 ± 0.15
E1M	-0.019 ± 0.2
R18T	-0.344 ± 0.093
R18W	-0.571 ± 0.081
R18C	-0.183 ± 0.22
R18G	0.063 ± 0.061
R18A	0.012 ± 0.071
F34S	-0.282 ± 0.087
F34G	-0.392 ± 0.065
F34R	0.081 ± 0.057
F34P	0.071 ± 0.076
F34K	0.222 ± 0.095
F34Y	-0.084 ± 0.12
F34C	-0.035 ± 0.096
F34D	-0.222 ± 0.1
F34A	-0.059 ± 0.072
F34E	-0.074 ± 0.088
F34T	0.013 ± 0.09
W13C	-0.497 ± 0.1
W13Q	-0.546 ± 0.085
W13L	-0.46 ± 0.083
W13P	-0.404 ± 0.074
W13G	-0.544 ± 0.067

Variant	abundance fitness
W13H	-0.499 ± 0.1
Q26A	0.017 ± 0.071
Q26R	-0.085 ± 0.067
Q26G	-0.199 ± 0.063
Q26C	0.133 ± 0.25
Q26H	-0.266 ± 0.2
Q26V	-0.19 ± 0.099
Q26T	-0.104 ± 0.12
Q26F	-0.015 ± 0.29
S27P	-1.02 ± 0.19
S27N	-0.453 ± 0.47
S27M	-0.641 ± 0.12
S27F	-0.988 ± 0.17
S27R	-0.422 ± 0.09
S27A	-0.611 ± 0.08
S27D	-0.551 ± 0.14
Y20N	-0.059 ± 0.25
Y20A	-0.3 ± 0.065
Y20D	-0.64 ± 0.13
Y20P	-0.143 ± 0.1
Y20K	-0.319 ± 0.28
Y20T	-0.277 ± 0.11
Y20G	-0.605 ± 0.063
Y20S	-0.353 ± 0.08
N24T	-0.63 ± 0.14

Variant	abundance fitness
N24F	-0.687 ± 0.31
N24Q	-0.41 ± 0.084
N24K	-0.23 ± 0.13
N24Y	-0.998 ± 0.16
N24S	-0.315 ± 0.079
N24M	-0.984 ± 0.099
N24C	-0.226 ± 0.18
E33N	0.031 ± 0.094
E33D	-0.237 ± 0.15
E33M	-0.341 ± 0.09
E33K	-0.232 ± 0.062
E33R	-0.241 ± 0.055
E33W	-0.429 ± 0.063
E33Q	-0.009 ± 0.085
E33Y	-0.892 ± 0.24
E29T	-0.269 ± 0.3
E29W	-0.559 ± 0.093
E29N	-0.421 ± 0.31
E29H	-0.016 ± 0.094
E29C	-0.575 ± 0.18
E29D	-0.388 ± 0.26
E29L	-0.129 ± 0.094
E29I	-0.062 ± 0.13
V23Q	-0.179 ± 0.093
V23A	-0.347 ± 0.071

Variant	abundance fitness
V23L	-0.024 ± 0.082
V23F	-0.367 ± 0.14
V23R	-0.039 ± 0.058
V23M	-0.331 ± 0.14
V23E	-0.26 ± 0.073
V23C	-0.765 ± 0.21
V23K	0.074 ± 0.11
N3G	-0.098 ± 0.071
N3L	-0.239 ± 0.11
N3M	0.323 ± 0.24
N3H	-0.128 ± 0.15
N3T	-0.355 ± 0.48
E39K	0.048 ± 0.075
E39V	0.008 ± 0.059
E39G	-0.057 ± 0.063
E39D	-0.128 ± 0.14
E39W	-0.191 ± 0.074
E39L	0.075 ± 0.067
E25G	-0.316 ± 0.073
E25M	-0.253 ± 0.12
E25W	-0.648 ± 0.095
E25D	0.144 ± 0.13
E25V	-0.17 ± 0.094
E25T	-0.119 ± 0.13
E25S	-0.365 ± 0.14

Variant	abundance fitness
E25P	-0.449 ± 0.14
G37T	-0.026 ± 0.081
G37E	-0.095 ± 0.084
G37P	-0.034 ± 0.097
G37Q	-0.089 ± 0.094
G37S	-0.112 ± 0.07
G37M	-0.216 ± 0.13
G37V	-0.007 ± 0.068
G37W	-0.154 ± 0.072
G37C	-0.088 ± 0.086
C11G	0.037 ± 0.25
C11K	-0.025 ± 0.2
G28V	-0.932 ± 0.085
G28K	-0.199 ± 0.2
G28M	-0.611 ± 0.13
G28S	-0.553 ± 0.075
G28C	-0.61 ± 0.12
G28T	-0.728 ± 0.079
H17W	-0.486 ± 0.095
H17F	-0.025 ± 0.35
H17P	-1 ± 0.12
H17A	0.037 ± 0.07
H17G	-0.274 ± 0.065
H17Q	0.186 ± 0.16
H17S	-0.01 ± 0.081

Variant	abundance fitness
H17E	0.088 ± 0.079
D36N	-0.273 ± 0.16
D36C	-0.097 ± 0.095
D36W	-0.262 ± 0.073
D36K	-0.076 ± 0.12
D36S	0.003 ± 0.068
D36L	-0.176 ± 0.065
D36Y	-0.494 ± 0.13
D36E	-0.113 ± 0.085
D36Q	-0.063 ± 0.072
D36F	-0.232 ± 0.11
D36M	-0.09 ± 0.079
H12M	-0.498 ± 0.13
H12L	-0.306 ± 0.073
H12E	-0.049 ± 0.13
H12P	-0.822 ± 0.15
H12R	-0.17 ± 0.07
H12D	-0.646 ± 0.14
H12W	-0.637 ± 0.094
H12N	-0.287 ± 0.18
H12T	-0.407 ± 0.26
H12V	-0.21 ± 0.074
A4S	-0.306 ± 0.18
A4M	0.036 ± 0.12
A4G	0.033 ± 0.073

Variant	abundance fitness
A4L	0.019 ± 0.1
A4E	0.081 ± 0.19
A4N	0.2 ± 0.12
A4V	-0.132 ± 0.096
A4Q	-0.122 ± 0.2
E38V	0.008 ± 0.084
E38Y	-0.316 ± 0.39
E38S	0.045 ± 0.07
E38G	-0.051 ± 0.072
E38P	0.056 ± 0.07
E38R	-0.023 ± 0.059
E38Q	0.061 ± 0.077
E43T	0.008 ± 0.089
E43G	0.021 ± 0.082
E43W	-0.197 ± 0.093
E43S	0.041 ± 0.078
E43K	0.021 ± 0.092
E43L	-0.086 ± 0.093
E43P	0.044 ± 0.083
E43F	0.248 ± 0.3
E43M	-0.148 ± 0.11
Y22V	-0.692 ± 0.075
Y22T	-0.402 ± 0.12
Y22M	-0.492 ± 0.16
E40G	0.012 ± 0.054

Variant	abundance fitness
E40Y	0.114 ± 0.22
E40K	-0.004 ± 0.09
E40D	-0.158 ± 0.13
E40V	0.056 ± 0.061
E40P	-0.011 ± 0.061
E40W	-0.101 ± 0.078
E40Q	-0.033 ± 0.071
F21H	-0.391 ± 0.11
F21P	-0.303 ± 0.093
F21L	-0.051 ± 0.083
F21G	-0.368 ± 0.058
F21Q	-0.223 ± 0.19
F21R	0.187 ± 0.06
F21M	-0.048 ± 0.16
F21V	0.113 ± 0.067
E41A	0.012 ± 0.063
E41G	0.041 ± 0.059
E41C	0.016 ± 0.084
E41K	-0.048 ± 0.11
E41L	-0.1 ± 0.073
E41Y	-0.502 ± 0.19
E41R	0.007 ± 0.059
E41P	0.031 ± 0.078
E41F	-0.079 ± 0.11
E41S	-0.139 ± 0.092

Variant	abundance fitness
E41V	0.042 ± 0.065
E41N	-0.109 ± 0.083
P35T	-0.753 ± 0.099
P35S	-0.651 ± 0.095
P35K	-0.482 ± 0.098
P35F	-0.854 ± 0.23
P35M	-0.734 ± 0.13
P35W	-0.782 ± 0.094
P35D	-0.712 ± 0.092
P35Y	-0.995 ± 0.18
P35G	-0.611 ± 0.062
S10T	-0.288 ± 0.24
S10K	-0.212 ± 0.15
S10L	-0.345 ± 0.12
S10P	-0.91 ± 0.15
S10Y	-0.521 ± 0.43
D16V	-0.253 ± 0.08
D16S	-0.24 ± 0.09
I2E	-0.173 ± 0.3
I2A	-0.518 ± 0.2
I2Y	-0.02 ± 0.25
I2S	0.142 ± 0.1
I2V	-0.204 ± 0.095
I2L	-0.208 ± 0.11
R15H	0.116 ± 0.096

Variant	abundance fitness
R15P	-0.118 ± 0.1
R15F	-0.188 ± 0.21
R15C	-0.204 ± 0.088
R15S	0.019 ± 0.093
R15L	-0.167 ± 0.082
R15K	0.14 ± 0.11
R15G	-0.032 ± 0.061
R15N	-0.05 ± 0.12
R15D	-0.007 ± 0.15
R15Q	0.139 ± 0.16
G8K	-0.408 ± 0.2
G8L	-0.795 ± 0.13
G8A	-0.707 ± 0.08
G8M	-0.605 ± 0.14
G8V	-0.664 ± 0.14
G8R	-0.621 ± 0.11
G8Q	-0.612 ± 0.14
G8E	-0.438 ± 0.18
G8C	-0.471 ± 0.16
G8N	-0.373 ± 0.16
S30T	0.067 ± 0.083
S30G	-0.023 ± 0.078
S30F	-0.066 ± 0.36
S30Q	0.15 ± 0.12
S30P	-0.174 ± 0.083

Variant	abundance fitness
S30I	0.082 ± 0.13
S30W	0.02 ± 0.11
S30V	0.094 ± 0.072
W32A	-0.226 ± 0.079
W32Y	-0.169 ± 0.12
W32D	-0.364 ± 0.14
W32I	0.001 ± 0.13
W32H	-0.157 ± 0.25
W32V	-0.093 ± 0.091
W32K	-0.246 ± 0.079
W32F	0.047 ± 0.15
W32G	-0.28 ± 0.061
W32R	-0.324 ± 0.064
D14V	-0.811 ± 0.079
D14Q	-0.667 ± 0.15
D14Y	-1.24 ± 0.15
D14R	-0.843 ± 0.076
D14E	-0.685 ± 0.13
D14C	-0.341 ± 0.13
D14H	-0.289 ± 0.13
D14K	-0.928 ± 0.14
D14M	-0.682 ± 0.098
D14A	-0.514 ± 0.072
W9Q	-0.498 ± 0.14
W9E	-0.661 ± 0.16

Variant	abundance fitness
W9L	-0.719 ± 0.083
R19C	-0.207 ± 0.3
R19Y	-0.864 ± 0.21
R19G	-0.485 ± 0.07
R19L	-0.423 ± 0.12
R19S	-0.391 ± 0.14
R19T	-0.621 ± 0.2
R19N	-0.506 ± 0.25
R19M	-0.21 ± 0.11
K7S	-0.214 ± 0.14
K7A	-0.079 ± 0.093
K7T	-0.456 ± 0.27
K7H	0.125 ± 0.48
K7R	-0.074 ± 0.1
K7G	-0.577 ± 0.15
K7L	-0.299 ± 0.1
K7V	-0.065 ± 0.12
E42P	0.004 ± 0.064
E42F	-0.368 ± 0.16
E42Y	-0.152 ± 0.14
E42R	0.01 ± 0.057
E42K	0.022 ± 0.11
E42V	-0.005 ± 0.07
E42S	0.032 ± 0.073
E42M	0.038 ± 0.11

Variant	abundance fitness
E42I	-0.409 ± 0.12
E42T	0.026 ± 0.073
T5V	0.065 ± 0.17
T5G	-0.393 ± 0.097
T5S	-0.81 ± 0.33
T5H	-0.534 ± 0.36
T5D	-0.463 ± 0.3
T5K	0.67 ± 0.33
Q31A	-0.377 ± 0.065
Q31E	-0.707 ± 0.081
Q31H	-0.47 ± 0.087
Q31T	-0.115 ± 0.078
Q31M	-0.451 ± 0.12
Q31P	-0.819 ± 0.18
S44L	-0.194 ± 0.12
S44D	-0.043 ± 0.3
S44T	-0.084 ± 0.33

Variants of: B2
Assay: as above
Details: Homo sapiens

Variant	abundance fitness
V29S	0.01 ± 0.056
N3C	-0.247 ± 0.14
K47G	-0.039 ± 0.065
W4C	-0.704 ± 0.093
W4Y	-0.341 ± 0.097
N35Q	-0.558 ± 0.092
M34H	-0.683 ± 0.12
D48A	-0.262 ± 0.071
S39G	0.016 ± 0.061
N32A	-0.04 ± 0.063
N32D	-0.016 ± 0.072
K2R	-0.184 ± 0.062
K14I	-0.296 ± 0.094
S40F	-0.559 ± 0.099
A53H	-0.233 ± 0.25
F19P	-1.11 ± 0.18
I13H	0.042 ± 0.1
